# Test results taken from patent publication US10072252B2 (priority 2013, dated 2018).
# “And” between values parts separate entries of the source, which are not always exact repeats. Equal values may be shown once.
# T1: Sulfolobus solfataricus SsoPox variant αsA1 (C258L/I261F/W263A), SEQ ID NO: 21 (Saccharolobus solfataricus, UniProt Q97VT7, C258L/I261F/W263A)
# T1 construct: made in house; host or cells: E. coli BL21(DE3)-pGro7/GroEL
# T1 sequence (Q97VT7 1-314 C258L/I261F/W263A): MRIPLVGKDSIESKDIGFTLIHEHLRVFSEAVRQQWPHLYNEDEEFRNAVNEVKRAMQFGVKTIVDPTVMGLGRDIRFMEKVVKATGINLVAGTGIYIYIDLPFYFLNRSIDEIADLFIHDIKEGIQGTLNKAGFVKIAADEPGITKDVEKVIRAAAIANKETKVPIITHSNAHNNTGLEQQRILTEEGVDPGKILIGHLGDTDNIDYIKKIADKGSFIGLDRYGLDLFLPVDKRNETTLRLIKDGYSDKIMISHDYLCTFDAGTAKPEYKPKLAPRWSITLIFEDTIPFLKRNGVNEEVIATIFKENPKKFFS
# How the values were obtained:
# [1] = target: T2, Sulfolobus solfataricus SsoPox variant W263M, SEQ ID NO: 9 (Saccharolobus solfataricus, UniProt Q97VT7, W263M); type: biochemical
# T2 construct: made in house; host or cells: E. coli BL21(DE3)-pGro7/GroEL
# [2] = target: T3, Sulfolobus solfataricus SsoPox variant W263L, SEQ ID NO: 11 (Saccharolobus solfataricus, UniProt Q97VT7, W263L); type: biochemical
# T3 construct: made in house; host or cells: E. coli BL21(DE3)-pGro7/GroEL
# [3] = target: Sulfolobus solfataricus SsoPox variant W263F (of SEQ ID NO: 3) (Saccharolobus solfataricus, UniProt Q97VT7, W263F)
# [4] = target: T4, Sulfolobus solfataricus SsoPox, wild type (wt), SEQ ID NO: 3 (Saccharolobus solfataricus, UniProt Q97VT7)
# [5] = target: T1, Sulfolobus solfataricus SsoPox variant αsA1 (C258L/I261F/W263A), SEQ ID NO: 21; type: biochemical; conditions: for Catalytic activity: pH 8
# [6] = target: T4, Sulfolobus solfataricus SsoPox, wild type (wt), SEQ ID NO: 3; design: made in house; host or cells: E. coli BL21(DE3)-pGro7/GroEL; conditions: pH 8; cited from earlier work
# [7] = target: T3, Sulfolobus solfataricus SsoPox variant W263L, SEQ ID NO: 11; type: biochemical; remark: listed apart in the source
# [8] = target: Sulfolobus solfataricus SsoPox variant W263V, SEQ ID NO: 17 (Saccharolobus solfataricus, UniProt Q97VT7, W263V)
# [9] = target: Sulfolobus solfataricus SsoPox variant W263I, SEQ ID NO: 15 (Saccharolobus solfataricus, UniProt Q97VT7, W263I)
# [10] = target: Sulfolobus solfataricus SsoPox variant W263T, SEQ ID NO: 19 (Saccharolobus solfataricus, UniProt Q97VT7, W263T)
# [11] = system: CCCCCCCCCC(=O)CC(=O)N[C@H]1CCOC1=O; assay: purified protein, by the assay type; conditions: pH 8.3; 25.0 °C
# [12] = system: CCCCCCCC(=O)CC(=O)N[C@H]1CCOC1=O; assay: purified protein, by the assay type; conditions: pH 8.3; 25.0 °C
# CCCCCCC1CCCC(=O)O1 = assay: purified protein, by the assay type; conditions: pH 8.3; 25.0 °C
# [13] = type: physicochemical; conditions: pH 8
molecule,measurement,setting,value
CCCCCCCC(=O)CC(=O)N[C@H]1CCOC1=O [3-oxo-C10 AHL],Enhancement/wt,[1],0
same,Enhancement/wt,[2],0
same,Enhancement/wt,[3],4.4(±1.0) × 10^−1
same,Enhancement/wt,[4],1
same,kcat/KM,[4],3.16(±0.40)×10^4 M^−1s^−1
same,times better substrate / higher catalytic efficiency,[4],10 times
"CCOP(=S)(OCC)Oc1ccc([N+](=O)[O-])cc1 [Ethyl-Parathion, ethyl-parathion]",Catalytic activity (very low hydrolysis),[5],VLH
"CCOC(=O)CC(SP(=S)(OC)OC)C(=O)OCC (stereo not drawn) [Malathion, malathion]",Catalytic activity,[6],5.56 ± 1.26 M⁻¹ s⁻¹
same,Catalytic activity,[5],3.2 ± 0.7 M⁻¹ s⁻¹
"COP(=O)(OC)Oc1ccc([N+](=O)[O-])cc1 [Methyl-paraoxon, methyl-paraoxon]",Catalytic activity,[6],1.27(±0.7) · 10^3 M^−1s^−1
same,Catalytic activity,[5],2.29(±1.09) · 10^4 M^−1s^−1
same,catalytic efficiency improvement induced by SDS,[7],5.3 times
same,kcat/KM,[7],3.16(±0.10) × 10^4 M^−1s^−1 and 1.69(±0.04) × 10^5 M^−1s^−1
"COP(=S)(OC)Oc1ccc([N+](=O)[O-])cc1 [Methyl-parathion, methyl-parathion]",Catalytic activity,[6],9.09 ± 0.9 M⁻¹ s⁻¹
same,Catalytic activity,[5],3.68(±0.5) · 10^1 M^−1s^−1
same,Km,[7],168 ± 31 µM
same,kcat,[7],1.22(±0.13) × 10^−1 s^−1
same,kcat/KM,[7],728 ± 156 M⁻¹ s⁻¹
"CCCCCCCC1CCC(=O)O1 (stereo not drawn) [Undecanoic-γ-lactone, undecanoic-γ-lactone]",Enhancement/wt,[8],1.4 ± 0.4
same,Enhancement/wt,[1],5.4 ± 1.3
same,Enhancement/wt,[9],2.3 ± 0.5
same,Enhancement/wt,[2],4.4 ± 1.1
same,Enhancement/wt,[10],147.9 ± 53.5
same,Enhancement/wt,[3],5.3 ± 1.8
same,Enhancement/wt,[4],1
same,kcat/KM,[4],2.36 (±0.38)×10^3 M^−1s^−1
"CCCCCCC1CCCC(=O)O1 (stereo not drawn) [Undecanoic-δ-lactone, undecanoic-δ-lactone]",Enhancement/wt,[8],10.1 ± 3.6
same,Enhancement/wt,[1],5.6 ± 2.0
same,Enhancement/wt,[9],>73.8 ± 17.2
same,kcat,[9]; pH 8.3,(5.80 ± 0.74) × 10^1 s^−1
same,kcat/KM,[9]; pH 8.3,>5.80(±0.74) × 10^6 M^−1s^−1
same,Enhancement/wt,[2],3.3 ± 1.2
same,Enhancement/wt,[10],9.1 ± 3.5
same,Enhancement/wt,[3],6.3 ± 2.7
same,Enhancement/wt,[4],1
same,kcat/KM,[4],6.72(±2.54)×10^4 M^−1s^−1
same,times better substrate / higher catalytic efficiency,[4],10 times
"Sulfolobus solfataricus SsoPox variant W263A, SEQ ID NO: 13 (Saccharolobus solfataricus P2; W263A)",Km,[11],1640 ± 170 µM
Sulfolobus solfataricus SsoPox variant W263F (of SEQ ID NO: 3) (Saccharolobus solfataricus P2; W263F),Km,[12],288 ± 56 µM
same,kcat,[12],3.96 ± 0.18 s⁻¹
same,kcat/Km,[12],13800 ± 2800 M⁻¹ s⁻¹
same,Km,CCCCCCC1CCCC(=O)O1,135.2 ± 52.8 µM
same,kcat,CCCCCCC1CCCC(=O)O1,66.5 ± 3.2 s⁻¹
same,kcat/Km,CCCCCCC1CCCC(=O)O1,492000 ± 193000 M⁻¹ s⁻¹
same,Km,[11],146 ± 33 µM
same,kcat,[11],0.66 ± 0.03 s⁻¹
same,kcat/Km,[11],4520 ± 1040 M⁻¹ s⁻¹
"Sulfolobus solfataricus SsoPox variant W263I, SEQ ID NO: 15 (Saccharolobus solfataricus P2; W263I)",Km,[12],1605 ± 443 µM
same,kcat,[12],0.6 ± 0.09 s⁻¹
same,kcat/Km,[12],374 ± 117 M⁻¹ s⁻¹
same,Km,[11],17.8 ± 4.87 µM and 17.8 ± 4.9 µM
same,kcat,[11],2.89 s⁻¹ and 2.89 ± 0.08 s⁻¹
"Sulfolobus solfataricus SsoPox variant W263T, SEQ ID NO: 19 (Saccharolobus solfataricus P2; W263T)",Km,[12],1000 ± 343 µM
same,kcat,[12],0.107 ± 0.016 s⁻¹
same,kcat/Km,[12],106 ± 40 M⁻¹ s⁻¹
same,Km,[11],137 ± 19 µM
same,kcat,[11],10.4 ± 0.35 s⁻¹
same,kcat/Km,[11],75600 ± 10800 M⁻¹ s⁻¹
"Sulfolobus solfataricus SsoPox variant W263V, SEQ ID NO: 17 (Saccharolobus solfataricus P2; W263V)",Km,[12],1346 ± 298 µM
same,kcat,[12],0.19 ± 0.009 s⁻¹
same,kcat/Km,[12],141 ± 32 M⁻¹ s⁻¹
same,Km,[11],24.7 ± 5.2 µM
same,kcat,[11],4.82 ± 0.11 s⁻¹
same,kcat/Km,[11],195000 ± 44000 M⁻¹ s⁻¹
"Sulfolobus solfataricus SsoPox, wild type (wt), SEQ ID NO: 3 (Saccharolobus solfataricus P2)",Km,[12],143 ± 15 µM
same,kcat,[12],4.52 ± 0.1 s⁻¹
same,kcat/Km,[12],31600 ± 4000 M⁻¹ s⁻¹
same,Km,CCCCCCC1CCCC(=O)O1,94 ± 18 µM
same,kcat,CCCCCCC1CCCC(=O)O1,7.38 ± 0.28 s⁻¹
same,kcat/Km,CCCCCCC1CCCC(=O)O1,78600 ± 15300 M⁻¹ s⁻¹
same,Km,[11],335 ± 10.4 µM and 456 ± 128 µM
"SsoPox wt: wild-type hyperthermophilic PTE of Sulfolobus solfataricus, sequence SEQ ID NO: 3 (protein, listed as Sulfolobus solfataricus) MRIPLVGKDSIESKDIGFTLIHEHLRVFSEAVRQQWPHLYNEDEEFRNAVNEVKRAMQFGVKTIVDPTVMGLGRDIRFMEKVVKATGINLVAGTGIYIYIDLPFYFLNRSIDEIADLFIHDIKEGIQGTLNKAGFVKIAADEPGITKDVEKVIRAAAIANKETKVPIITHSNAHNNTGLEQQRILTEEGVDPGKILIGHLGDTDNIDYIKKIADKGSFIGLDRYGLDLFLPVDKRNETTLRLIKDGYSDKIMISHDYCCTIDWGTAKPEYKPKLAPRWSITLIFEDTIPFLKRNGVNEEVIATIFKENPKKFFS",melting temperature,[13],104 °C
"SsoPox W263F: SsoPox (SEQ ID NO: 3) with W263F variation (protein, listed as Sulfolobus solfataricus) MRIPLVGKDSIESKDIGFTLIHEHLRVFSEAVRQQWPHLYNEDEEFRNAVNEVKRAMQFGVKTIVDPTVMGLGRDIRFMEKVVKATGINLVAGTGIYIYIDLPFYFLNRSIDEIADLFIHDIKEGIQGTLNKAGFVKIAADEPGITKDVEKVIRAAAIANKETKVPIITHSNAHNNTGLEQQRILTEEGVDPGKILIGHLGDTDNIDYIKKIADKGSFIGLDRYGLDLFLPVDKRNETTLRLIKDGYSDKIMISHDYCCTIDFGTAKPEYKPKLAPRWSITLIFEDTIPFLKRNGVNEEVIATIFKENPKKFFS",melting temperature,[13],91.8±1.7 °C
"SsoPox W263L: SEQ ID NO: 3 with substitution of tryptophan W in position 263 by leucine L (protein, listed as Sulfolobus solfataricus) MRIPLVGKDSIESKDIGFTLIHEHLRVFSEAVRQQWPHLYNEDEEFRNAVNEVKRAMQFGVKTIVDPTVMGLGRDIRFMEKVVKATGINLVAGTGIYIYIDLPFYFLNRSIDEIADLFIHDIKEGIQGTLNKAGFVKIAADEPGITKDVEKVIRAAAIANKETKVPIITHSNAHNNTGLEQQRILTEEGVDPGKILIGHLGDTDNIDYIKKIADKGSFIGLDRYGLDLFLPVDKRNETTLRLIKDGYSDKIMISHDYCCTIDLGTAKPEYKPKLAPRWSITLIFEDTIPFLKRNGVNEEVIATIFKENPKKFFS",melting temperature,[13],92.0±2.1 °C
"SsoPox W263M: SEQ ID NO: 3 with substitution of tryptophan W in position 263 by methionine M (protein, listed as Sulfolobus solfataricus) MRIPLVGKDSIESKDIGFTLIHEHLRVFSEAVRQQWPHLYNEDEEFRNAVNEVKRAMQFGVKTIVDPTVMGLGRDIRFMEKVVKATGINLVAGTGIYIYIDLPFYFLNRSIDEIADLFIHDIKEGIQGTLNKAGFVKIAADEPGITKDVEKVIRAAAIANKETKVPIITHSNAHNNTGLEQQRILTEEGVDPGKILIGHLGDTDNIDYIKKIADKGSFIGLDRYGLDLFLPVDKRNETTLRLIKDGYSDKIMISHDYCCTIDMGTAKPEYKPKLAPRWSITLIFEDTIPFLKRNGVNEEVIATIFKENPKKFFS",melting temperature,[13],85.3±0.9 °C
